Laboratory results published in PMC12820532 (Nucleic Acids Research, 2026).

Target: His-REV7 (human, UniProt Q9UI95 1-211)
Assay: pull-down

Sequence of His-REV7 (Q9UI95 whole entry): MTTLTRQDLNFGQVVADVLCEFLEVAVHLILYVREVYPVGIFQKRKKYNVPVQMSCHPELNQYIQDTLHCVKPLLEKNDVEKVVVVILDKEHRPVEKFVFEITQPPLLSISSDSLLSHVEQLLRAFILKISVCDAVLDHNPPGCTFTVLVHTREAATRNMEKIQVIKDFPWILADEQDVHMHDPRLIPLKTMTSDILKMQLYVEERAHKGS

Binder | binding result
GST-ATRIP 203–307 (WT) (domain or fragment) RTKLQTSERANKLAAPSVSHVSPRKNPSVVIKPEACSPQFGKTSFPTKESFSANMSLPHPCQTESGYKPLVGREDSKPHSLRGDSIKQEEAQKSFVDSWRQRSNT | binds
GST-ATRIP 203–348 (domain or fragment) RTKLQTSERANKLAAPSVSHVSPRKNPSVVIKPEACSPQFGKTSFPTKESFSANMSLPHPCQTESGYKPLVGREDSKPHSLRGDSIKQEEAQKSFVDSWRQRSNTQGSILINLLLKQPLIPGSSLSLCHLLSSSSESPAGTPLQPP | binds
